Values of other authors as cited in paper PMC5996525.

Molecular target: CTLA-4 (Homo sapiens) (UniProt P16410)
Assay: SPR

Chain of UniProt P16410 (P16410 36-161): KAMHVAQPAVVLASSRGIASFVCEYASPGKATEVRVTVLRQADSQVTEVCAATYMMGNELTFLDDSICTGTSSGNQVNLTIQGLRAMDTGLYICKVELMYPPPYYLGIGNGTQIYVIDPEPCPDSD

## tremelimumab
  Kd: 5.89 nM
